In patent US20130115677:
Substitutions are numbered along the chain they refer to.

Experiments:
Assay in all cases: cleavage_in_vitro
[1] = system: T1, SspI (Sphaerotilus species); conditions: NEB4, 37 C, Mg2+
T1 sequence: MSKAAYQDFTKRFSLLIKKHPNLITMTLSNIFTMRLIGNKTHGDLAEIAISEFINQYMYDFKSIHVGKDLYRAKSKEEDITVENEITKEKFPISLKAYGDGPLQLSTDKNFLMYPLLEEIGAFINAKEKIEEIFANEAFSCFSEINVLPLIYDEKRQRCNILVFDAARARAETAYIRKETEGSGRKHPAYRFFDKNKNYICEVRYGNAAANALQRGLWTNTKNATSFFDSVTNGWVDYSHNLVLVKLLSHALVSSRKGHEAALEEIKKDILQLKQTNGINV

[2] = biological target: EcoRI(K62A) K62A (Escherichia coli RY13) (UniProt P00642); conditions: NEB4, 37 C, Mg2+
[3] = biological target: T2, PstI-HF D91A (Providencia stuartii 164) (UniProt P00640); conditions: NEB4, 37 C, Mg2+
T2 sequence: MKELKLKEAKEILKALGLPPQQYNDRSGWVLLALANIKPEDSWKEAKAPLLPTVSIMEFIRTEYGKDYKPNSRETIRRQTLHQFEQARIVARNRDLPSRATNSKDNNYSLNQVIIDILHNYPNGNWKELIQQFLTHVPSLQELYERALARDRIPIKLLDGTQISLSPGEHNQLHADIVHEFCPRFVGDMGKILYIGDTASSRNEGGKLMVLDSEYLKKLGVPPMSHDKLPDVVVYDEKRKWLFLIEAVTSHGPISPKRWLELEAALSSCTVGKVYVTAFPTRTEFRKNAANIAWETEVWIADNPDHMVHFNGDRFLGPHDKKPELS

[4] = biological target: T3, BamHI-HF E163A/E167T (Bacillus amyloliquefaciens) (UniProt P23940); conditions: NEB4, 37 C, Mg2+
T3 sequence: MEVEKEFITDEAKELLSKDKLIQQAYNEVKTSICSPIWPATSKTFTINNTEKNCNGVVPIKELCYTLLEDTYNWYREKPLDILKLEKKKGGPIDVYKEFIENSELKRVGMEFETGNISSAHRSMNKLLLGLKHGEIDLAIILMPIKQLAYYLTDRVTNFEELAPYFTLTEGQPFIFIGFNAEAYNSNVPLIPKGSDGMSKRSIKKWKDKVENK

[5] = system: T4, SspI-HF Y98F (Sphaerotilus species); conditions: NEB4, 37 C, Mg2+
T4 sequence: T1 sequence with Y98F

BstXI = conditions: NEB4, 55 C, Mg2+
[6] = biological target: T5, HindIII (Haemophilus influenzae Rd) (UniProt P43870); conditions: NEB4, 37 C, Mg2+
T5 sequence: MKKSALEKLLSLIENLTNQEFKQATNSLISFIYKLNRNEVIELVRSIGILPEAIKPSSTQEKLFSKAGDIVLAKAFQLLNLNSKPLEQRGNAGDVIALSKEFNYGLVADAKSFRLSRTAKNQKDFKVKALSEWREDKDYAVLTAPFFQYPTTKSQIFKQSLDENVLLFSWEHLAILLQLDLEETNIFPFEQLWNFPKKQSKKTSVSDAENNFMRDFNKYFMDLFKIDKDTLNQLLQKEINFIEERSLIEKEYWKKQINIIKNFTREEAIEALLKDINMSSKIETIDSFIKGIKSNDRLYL

[7] = biological target: T6, PstI (Providencia stuartii 164) (UniProt P00640); conditions: NEB4, 37 C, Mg2+
T6 sequence: T2 sequence with A91D

BstXI-HF N65A = conditions: NEB4, 55 C, Mg2+
[8] = system: T7, SphI (Streptomyces phaeochromogenes); conditions: NEB4, 37 C, Mg2+
T7 sequence: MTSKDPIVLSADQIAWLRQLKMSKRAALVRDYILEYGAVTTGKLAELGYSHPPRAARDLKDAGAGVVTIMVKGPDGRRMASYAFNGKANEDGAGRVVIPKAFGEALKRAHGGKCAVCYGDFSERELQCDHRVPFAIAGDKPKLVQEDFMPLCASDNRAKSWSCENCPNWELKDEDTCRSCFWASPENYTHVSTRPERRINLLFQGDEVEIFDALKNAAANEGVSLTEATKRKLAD

[9] = system: T8, BsmBI-HF N185Y/R232A (Bacillus stearothermophilus); conditions: NEB4, 55 C, Mg2+
T8 sequence: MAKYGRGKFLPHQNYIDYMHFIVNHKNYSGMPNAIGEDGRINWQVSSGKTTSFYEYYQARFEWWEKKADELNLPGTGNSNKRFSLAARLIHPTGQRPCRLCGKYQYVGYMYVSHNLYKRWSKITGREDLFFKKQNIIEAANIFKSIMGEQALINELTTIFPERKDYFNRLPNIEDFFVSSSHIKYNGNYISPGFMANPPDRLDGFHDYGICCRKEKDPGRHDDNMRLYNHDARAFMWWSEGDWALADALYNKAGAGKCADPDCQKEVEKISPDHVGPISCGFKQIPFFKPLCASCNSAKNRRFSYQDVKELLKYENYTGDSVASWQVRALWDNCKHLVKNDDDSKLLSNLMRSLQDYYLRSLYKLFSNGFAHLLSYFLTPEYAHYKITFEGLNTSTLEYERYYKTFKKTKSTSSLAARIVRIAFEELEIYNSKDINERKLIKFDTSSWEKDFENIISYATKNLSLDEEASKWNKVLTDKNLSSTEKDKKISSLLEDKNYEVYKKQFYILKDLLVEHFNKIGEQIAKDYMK

## lambda DNA
[1]
  activity (fidelity index): 16
[2]
  activity (fidelity index): 32000
[3]
  activity (fidelity index): 4000
[4]
  activity (fidelity index): > 4000
[5]
  activity (fidelity index): 500
BstXI
  activity (fidelity index): 4
[6]
  activity (fidelity index): 32
[7]
  activity (fidelity index): 8
BstXI-HF N65A
  activity (fidelity index): > 250
[8]
  activity (fidelity index): 16
[9]
  activity (fidelity index): > 500
